The record followed here is doi:10.1101/2023.05.14.540690.

As usually defined, the stoichiometry N is the number of molecules, sites or subunits per partner or assembly.

For the experiment, the target named is stressed NISTmAb monoclonal antibody. The experiment can be described thus: AUC; sedimentation velocity at 50,000 rpm and 20 °C; c(s) analysis in SEDFIT (command line operated, and repeated manually on the same data); stressed, partially denatured sample.

stressed NISTmAb monoclonal antibody: the percent of signal in higher aggregates (command line analysis) came to 51.8%, the percent of signal in higher aggregates (manual analysis of the same data) was found to be 51.7%, the percent of signal in the dimer peak amounted to 12.5% and the stoichiometry N worked out at 2.
